In PMC5727500, “Paper-based MoS2 nanosheet-mediated FRET aptasensor for rapid malaria diagnosis”:

Biological target: Plasmodium lactate dehydrogenase (pLDH) (Plasmodium falciparum, UniProt Q27743 1-316)
Assay: FRET fluorescence recovery from MoS2 nanosheets on printer paper; 1 uM pLDH; 100 nM aptamer, 25 ug/mL MoS2 dried on printer paper; no recovery on lens, coffee filter, Whatman or Advantec paper; Aptamer buffer 20 mM Tris-HCl pH 8, 50 mM NaCl, 5 mM KCl, 5 mM MgCl2; pLDH in water, other proteins in 1x PBS; readings over 30 min; temperature not stated
Conditions: protein: recombinant; chain copies: 4; label: 3' FAM

Plasmodium lactate dehydrogenase (pLDH), sequence (Q27743 whole entry): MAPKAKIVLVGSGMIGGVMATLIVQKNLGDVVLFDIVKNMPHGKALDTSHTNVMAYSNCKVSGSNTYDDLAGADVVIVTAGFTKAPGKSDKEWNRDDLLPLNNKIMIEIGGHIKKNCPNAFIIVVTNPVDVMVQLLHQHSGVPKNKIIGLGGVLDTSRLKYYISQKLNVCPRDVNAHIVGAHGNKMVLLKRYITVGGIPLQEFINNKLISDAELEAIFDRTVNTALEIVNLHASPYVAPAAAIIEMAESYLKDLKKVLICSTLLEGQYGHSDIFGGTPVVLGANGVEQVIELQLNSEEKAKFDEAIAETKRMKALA

Question: Does GTTCGATTGGATTGTGCCGGAAGTGCTGGCTCGAAC (ssDNA) [pLDH aptamer] bind?
Answer: binds
